Data taken from US20210293825.

Biological target: HSP90β/CDC37 heterocomplex of purified recombinant HSP90β and CDC37 (in vitro kinase assay), P08238
Sequence (P08238 whole entry, chain 1 of 2): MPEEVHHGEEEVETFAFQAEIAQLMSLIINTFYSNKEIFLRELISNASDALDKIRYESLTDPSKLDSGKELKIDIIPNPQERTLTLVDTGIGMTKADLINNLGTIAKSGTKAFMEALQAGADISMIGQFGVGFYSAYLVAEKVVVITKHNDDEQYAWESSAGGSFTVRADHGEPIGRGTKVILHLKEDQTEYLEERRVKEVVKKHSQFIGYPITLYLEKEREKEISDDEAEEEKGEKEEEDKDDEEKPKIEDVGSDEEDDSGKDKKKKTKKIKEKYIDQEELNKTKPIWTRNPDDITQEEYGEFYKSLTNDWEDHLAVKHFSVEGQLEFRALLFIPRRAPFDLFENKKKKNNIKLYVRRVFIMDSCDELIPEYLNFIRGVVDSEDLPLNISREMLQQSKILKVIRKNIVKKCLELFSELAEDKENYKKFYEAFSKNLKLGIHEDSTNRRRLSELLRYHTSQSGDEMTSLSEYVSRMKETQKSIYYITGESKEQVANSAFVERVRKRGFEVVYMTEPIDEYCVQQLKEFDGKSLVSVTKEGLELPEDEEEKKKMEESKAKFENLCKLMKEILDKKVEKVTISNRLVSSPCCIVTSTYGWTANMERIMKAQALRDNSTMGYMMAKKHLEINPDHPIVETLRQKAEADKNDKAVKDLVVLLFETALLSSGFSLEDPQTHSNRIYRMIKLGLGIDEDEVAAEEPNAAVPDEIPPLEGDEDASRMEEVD
Sequence (chain, as listed by the source, chain 2 of 2): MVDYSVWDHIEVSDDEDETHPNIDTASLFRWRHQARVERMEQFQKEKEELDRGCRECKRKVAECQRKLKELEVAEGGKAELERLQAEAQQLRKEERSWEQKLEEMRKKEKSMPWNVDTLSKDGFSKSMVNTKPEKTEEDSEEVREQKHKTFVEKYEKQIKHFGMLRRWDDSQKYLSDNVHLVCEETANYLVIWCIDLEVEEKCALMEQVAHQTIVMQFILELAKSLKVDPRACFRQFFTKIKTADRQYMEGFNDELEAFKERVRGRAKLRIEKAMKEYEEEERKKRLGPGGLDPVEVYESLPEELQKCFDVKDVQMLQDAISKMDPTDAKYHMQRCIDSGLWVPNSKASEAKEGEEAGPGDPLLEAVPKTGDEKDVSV

B1: purified recombinant RAF1 (Raf-1, EMD Millipore #17-360) (protein)
chain: SQPKTPVPAQRERAPVSGTQEKNKIRPRGQRDSSYYWEIEASEVMLSTRIGSGSFGTVYKGKWHGDVAVKILKVVDPTPEQFQAFRNEVAVLRKTRHVNILLFMGYMTKDNLAIVTQWCEGSSLYKHLHVQETKFQMFQLIDIARQTAQGMDYLHAKNIIHRDMKSNNIFLHEGLTVKIGDFGLATVKSRWSGSQQVEQPTGSVLWMAPEVIRMQDNNPFSFQSDVYSYGIVLYELMTGELPYSHINNRDQIIFMVGRGYASPDLSKLYKNCPKAMKRLVADCVKKVKEERPLFPQILSSIELLQHSLPKINRSASEPSLHRAAHTEDINACTLTTSPRLPVF
With B1 the “RAF1 activity (autophosphorylation of RAF1 in an in vitro kinase assay, Western blot)” value was “In the absence of CDC37/HSP90β heterocomplex, RAF1 activity was much lower”.

B2: purified recombinant SGK3 (Thermo Scientific #PV3859) (protein)
chain: MQRDHTMDYKESCPSVSIPSSDEHREKKKRFTVYKVLVSVGRSEWFVFRRYAEFDKLYNTLKKQFPAMALKIPAKRIFGDNFDPDFIKQRRAGLNEFIQNLVRYPELYNHPDVRAFLQMDSPKHQSDPSEDEDERSSQKLHSTSQNINLGPSGNPHAKPTDFDFLKVIGKGSFGKVLLAKRKLDGKFYAVKVLQKKIVLNRKEQKHIMAERNVLLKNVKHPFLVGLHYSFQTTEKLYFVLDFVNGGELFFHLQRERSFPEHRARFYAAEIASALGYLHSIKIVYRDLKPENILLDSVGHVVLTDFGLCKEGIAISDTTTTFCGTPEYLAPEVIRKQPYDNTVDWWCLGAVLYEMLYGLPPFYCRDVAEMYDNILHKPLSLRPGVSLTAWSILEELLEKDRQNRLGAKEDFLEIQNHPFFESLSWADLVQKKIPPPFNPNVAGPDDIRNFDTAFTEETVPYSVCVSSDYSIVNASVLEADDAFVGFSYAPPSEDLFL
B2 was tested, and the “phosphorylation of HSP90β (in vitro kinase assay, Western blot)” value was “SGK3 increased phosphorylation of HSP90β, and that phosphorylation was further increased in the presence of KBU2046”.
